Reference: PMC4216083

Target: Toll-like receptor 4 (human (endogenous in monocyte-derived DCs)) (UniProt O00206)
UniProt O00206, sequence (O00206 24-839): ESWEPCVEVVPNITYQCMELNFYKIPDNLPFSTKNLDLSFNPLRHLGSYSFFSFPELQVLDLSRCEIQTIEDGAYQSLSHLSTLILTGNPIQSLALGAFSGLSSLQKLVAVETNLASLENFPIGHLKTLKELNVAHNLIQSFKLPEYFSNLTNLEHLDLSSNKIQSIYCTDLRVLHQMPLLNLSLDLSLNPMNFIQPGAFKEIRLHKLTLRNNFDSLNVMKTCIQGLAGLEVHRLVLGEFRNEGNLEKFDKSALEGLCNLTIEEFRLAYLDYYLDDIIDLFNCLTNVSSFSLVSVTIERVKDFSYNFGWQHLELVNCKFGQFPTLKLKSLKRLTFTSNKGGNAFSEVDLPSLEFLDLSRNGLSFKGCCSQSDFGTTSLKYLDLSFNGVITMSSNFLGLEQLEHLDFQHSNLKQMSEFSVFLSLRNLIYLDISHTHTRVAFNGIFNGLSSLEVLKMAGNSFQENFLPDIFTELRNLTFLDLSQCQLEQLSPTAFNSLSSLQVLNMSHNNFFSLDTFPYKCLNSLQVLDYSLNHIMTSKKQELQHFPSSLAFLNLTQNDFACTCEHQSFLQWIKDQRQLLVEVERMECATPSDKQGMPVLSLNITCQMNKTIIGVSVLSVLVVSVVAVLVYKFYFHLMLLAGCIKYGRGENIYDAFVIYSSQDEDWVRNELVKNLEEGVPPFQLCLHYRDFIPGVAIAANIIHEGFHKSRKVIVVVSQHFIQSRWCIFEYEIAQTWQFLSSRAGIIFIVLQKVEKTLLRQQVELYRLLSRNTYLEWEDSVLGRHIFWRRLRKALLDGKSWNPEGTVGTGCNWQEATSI

Substance: Enterovirus 71 virus-like particles (complex)
- decrease of EV71 VLP (10 µg/mL)-induced IL-10 production by human DCs after pre-incubation with anti-TLR4 mAb (HTA125, 20 µg/mL), ELISA: 41%
- decrease of EV71 VLP (10 µg/mL)-induced IL-12 p40 production by human DCs after pre-incubation with anti-TLR4 mAb (HTA125, 20 µg/mL), ELISA: 48%
- decrease of EV71 VLP (10 µg/mL)-induced IL-12 p70 production by human DCs after pre-incubation with anti-TLR4 mAb (HTA125, 20 µg/mL), ELISA: 68%
